Measured values taken from patent US20260167959A1, “APTAZYME-BASED REGULATABLE GENE EXPRESSION SYSTEMS” (REJUVENATE BIO INC, priority 2022, published 2026).

B1: RA305 (nucleic acid)
DNA: GCGCGTCCTGGATTCGCGGAAACGCGTACATCAGTGATACCAGCATCGTCTTGATGCCCTTGGCAGCACTCAGCTGACGAGTCCCAAATAGGACGAAACGCGC
modifications: expressed or natural sequence
B2: RA302 (nucleic acid)
DNA: GCGCGTCCTGGATTCGCGGAAACGCGTACATCCAGCTGACGAGAATACCAGCATCGTCTTGATGCCCTTGGAAGTCTAGTCCCAAATAGGACGAAACGCGC
modifications: expressed or natural sequence
B3: RA304 (nucleic acid)
DNA: GCGCGAGAATACCAGCATCGTCTTGATGCCCTTGGAAGTCTCGCGTCCTGGATTCGCGGAAACGCGTACATCCAGCTGACGAGTCCCAAATAGGACGAAACGCGC
modifications: expressed or natural sequence
B4: RA306 (nucleic acid)
DNA: GCGCGGGAATACCAGCATCGTCTTGATGCCCTTGGAAGTCCTCCTGGATTCGCGGAAACGCGTACATCCAGCTGACGAGTCCCAAATAGGACAAAACGCGC
modifications: expressed or natural sequence
B5: RA303 (nucleic acid)
DNA: GCGCCGGAATACCAGCATCGTCTTGATGCCCTTGGAAGTCCGGTCCTGGATTCGCGGAAACGCGTACATCCAGCTGACGAGTCCCAAATAGGACGAAACGCGC
modifications: expressed or natural sequence
B6: RA308 (nucleic acid)
DNA: GCGCGTCCTGGATTCGCGGAAACGCGTACATCCAGCAGTGATACCAGCATCGTCTTGATGCCCTTGGCAGCACTTGACGAGTCCCAAATAGGACGAAACGCGC
modifications: expressed or natural sequence
B7: RA307 (nucleic acid)
DNA: GCGCGTCCTGGATTCGCGGAAACGCGTACATCCAGCTGACGAGTGAGAATACCAGCATCGTCTTGATGCCCTTGGAAGTCTCCCCAAATAGGACGAAACGCGC
modifications: expressed or natural sequence
B8: RA292 (nucleic acid)
DNA: GCGCGTCGGAATACCAGCATCGTCTTGATGCCCTTGGAAGTCCGCCTGGATTCGCGGAAACGCGTACATCCAGCTGACGAGTCCCAAATAGGACGAAACGCGC
modifications: expressed or natural sequence
B9: RA299 (nucleic acid)
DNA: GCGCGTAGTGATACCAGCATCGTCTTGATGCCCTTGGCAGCACTCCTGGATTCGCGGAAACGCGTACATCCAGCTGACGAGTCCCAAATAGGACGAAACGCGC
modifications: expressed or natural sequence
B10: RA295 (nucleic acid)
DNA: GCGCGTCCTGGATTCGCGGAAAGGAATACCAGCATCGTCTTGATGCCCTTGGAAGTCCCGCGTACATCCAGCTGACGAGTCCCAAATAGGACGAAACGCGC
modifications: expressed or natural sequence
B11: RA297 (nucleic acid)
DNA: GCGCGGGAATACCAGCATCGTCTTGATGCCCTTGGAAGTCCTCCTGGATTCGCGGAAACGCGTACATCCAGCTGACGAGTCCCAAATAGGACGAAACGCGC
modifications: expressed or natural sequence
B12: RA029 (nucleic acid)
DNA: GCGCGTCCTGGATTCGCGGAAACGGGAATACCAGCATCGTCTTGATGCCCTTGGAAGTCCCGTACATCCAGCTGACGAGTCCCAAATAGGACGAAACGCGC
modifications: expressed or natural sequence
B13: RA300 (nucleic acid)
DNA: GCGCGTCCTGGCGAGAATACCAGCATCGTCTTGATGCCCTTGGAAGTCTCGATTCGCGGAAACGCGTACATCCAGCTGACGAGTCCCAAATAGGACGAAACGCGC
modifications: expressed or natural sequence
B14: RA296 (nucleic acid)
DNA: GCGCGTCCTGGATTCGCGGAAACGCGTACATCCAGCTGACGAGTCCCAAATAGGAGAATACCAGCATCGTCTTGATGCCCTTGGAAGTCTACGAAACGCGC
modifications: expressed or natural sequence
B15: RA291 (nucleic acid)
DNA: GCTGTCACCGGAATACCAGCATCGTCTTGATGCCCTTGGAAGTCCGGTCTGATGAGTCCCATAAGGACGAAACAGC
modifications: expressed or natural sequence
B16: RA298 (nucleic acid)
DNA: GCCGGAATACCAGCATCGTCTTGATGCCCTTGGAAGTCCGGCGTCCTGGATTCGCGGAAACGCGTACATCCAGCTGACGAGTCCCAAATAGGACGAAACGCGC
modifications: expressed or natural sequence
B17: RA301 (nucleic acid)
DNA: GCGAGTGATACCAGCATCGTCTTGATGCCCTTGGCAGCACTCGTCCTGGATTCGCGGAAACGCGTACATCCAGCTGACGAGTCCCAAATAGGACGAAACGCGC
modifications: expressed or natural sequence
B18: RA030 (nucleic acid)
DNA: GCGCGTCCTGGATTCGCGGAAACGCGTACATCCAGCTGACGAGTCCCAAATAGGACGAAACGAGAATACCAGCATCGTCTTGATGCCCTTGGAAGTCTCGCGC
modifications: expressed or natural sequence
B19: RA294 (nucleic acid)
DNA: GCGCGTCCTGGATTCGCGGAAACGAGAATACCAGCATCGTCTTGATGCCCTTGGAAGTCTCGCGTACATCCAGCTGACGAGTCCCAAATAGGACGAAACGCGC
modifications: expressed or natural sequence
B20: RA293 (nucleic acid)
DNA: GCGGGAATACCAGCATCGTCTTGATGCCCTTGGAAGTCCCGTCCTGGATTCGCGGAAACGCGTACATCCAGCTGACGAGTCCCAAATAGGACGAAACGCGC
modifications: expressed or natural sequence

system: Renilla luciferase RNA; test: Barcoded aptazyme variant library screen: un-cleaved Renilla luciferase RNA by barcode read counts, HEK293-T cells; type: cell-based; conditions: un-cleaved Renilla luciferase RNA by barcode read counts; with 1 mM theophylline (ON) over without theophylline (OFF); HEK293-T cells; triplicate
Source text: Based on the findings from Example 1, an aptazyme variant library was generated from the T3H48 ribozyme with one of seven variant theophylline aptamers inserted sequentially after each nucleotide of the DNA sequence encoding the T3H48 ribozyme sequence. […] The seven variant theophylline aptamers vary in their communication channels, which are the ribonucleotides of the aptamer that attach to the ribozyme sequence (see, Table 2).
The library was barcoded with unique sequences of nine nucleotides flanked by forward and reverse primer amplification sequences.
The aptazyme library was then PCR amplified and cloned into the psiCHECK™-2 dual luciferase vector in the 3′ UTR of the Renilla luciferase gene. […] The next day, the cells were isolated followed by DNA and RNA extraction using standard methods. The purified RNA was then converted to cDNA and the barcoded portion of the aptazyme library was PCR amplified. Similarly, the DNA was PCR amplified and all the samples were sequenced. All experimental conditions (with theophylline and without theophylline) were performed in triplicate. The read count for each barcode was determined with a custom build code and the data was normalized to identify the un-cleaved fractions of the Renilla luciferase RNA from cells that were cultured in the presence or absence of theophylline for each aptazyme, which was used to obtain the fold-change between ON- and OFF-states (FIG. 2).

Molecule | Fold change in RNA expression between the ON state and the OFF state
B1 | 1.0
B2 | 1.0
B3 | 1.0
B4 | 1.0
B5 | 1.0
B6 | 1.0
B7 | 1.0

same assay, conditions: un-cleaved Renilla luciferase RNA, HEK293-T cells cultured with 1 mM theophylline (ON) over without theophylline (OFF); barcode read counts, triplicate

Molecule | Fold change in RNA expression between the ON state and the OFF state [fold]
B8 | 1.0
B9 | 1.0
B10 | 1.0
B11 | 1.0
B12 | 2.3
B13 | 1.0
B14 | 1.0
B15 | 1.0
B16 | 1.0
B17 | 1.0
B18 | 2.3
B19 | 1.0
B20 | 1.0
